Measured values: patent publication US12692310B2, “ASIC1 channel antagonist antibody” (ShanghaiTech University, priority 2019, dated 2026)

Tests used:
Format in all cases: cell-based
hASIC1a-eYFP = molecular target: T1, hASIC1a-eYFP (Homo sapiens, UniProt P78348); assay: Species/subtype selectivity, FACS binding and ICC, transfected CHO-K1 cells; design: overexpress the full-length hASIC1a (1-528 amino acids) protein fused with eYFP; expressed in transfected cells; host or cells: CHO-K1, transient
T1 sequence (P78348 1-528): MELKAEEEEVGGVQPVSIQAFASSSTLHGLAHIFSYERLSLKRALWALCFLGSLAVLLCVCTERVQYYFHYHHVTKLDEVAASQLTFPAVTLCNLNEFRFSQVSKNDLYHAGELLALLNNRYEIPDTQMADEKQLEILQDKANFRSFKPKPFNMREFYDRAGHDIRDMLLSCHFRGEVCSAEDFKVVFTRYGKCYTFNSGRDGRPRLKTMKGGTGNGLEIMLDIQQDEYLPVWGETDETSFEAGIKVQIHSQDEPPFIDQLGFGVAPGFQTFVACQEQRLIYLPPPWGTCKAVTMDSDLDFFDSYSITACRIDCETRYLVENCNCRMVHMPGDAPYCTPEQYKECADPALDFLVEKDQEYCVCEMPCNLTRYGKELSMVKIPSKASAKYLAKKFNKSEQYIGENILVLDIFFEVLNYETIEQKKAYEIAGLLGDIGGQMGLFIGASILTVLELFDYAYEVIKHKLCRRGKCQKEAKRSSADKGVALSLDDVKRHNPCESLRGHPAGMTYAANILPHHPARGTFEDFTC
Method: Cell Membrane Colocalization Studies Using Immunocytochemistry (ICC). Cells (CHO-K1) were seeded onto the poly-D-lysine-coated glass bottom 24-well plates at a concentration of 2×10^5 cells per mL. After 12 h of cultivation, the CHO-K1 cells were transfected with ASIC plasmids by Lipofectin 3000 reagent. Twenty-four hours after transfection, the cells were fixed in 4% paraformaldehyde and incubated for 30 min in a blocking solution (5% goat serum in PBS). The resulting cells were incubated with […] ASC06-IgG1 at 4° C. overnight followed by three PBS washes for 5 min each and incubation with the Alexa555-conjugated goat anti-human secondary antibody (Life Technology). After three additional PBS washes for 5 min each, the nuclei of the cells were stained with DAPI (#10236276001; Roche). The ICC analysis was performed on a laser scanning confocal microscopy (ZEISS LSM710) with a 63×N.A. 1.4 objective at 25° C. Images were collected on a 1,024×1,024-pixel EM-CCD camera. […]
To test the species and subtype selectivity of ASC06-IgG1, vectors encoding human ASIC1b-eYFP fusion, rat ASIC1a-eYFP fusion, mouse ASIC1a-eYFP fusion, hASIC2a-eYFP fusion, hASIC2b-eYFP fusion, and hASIC3a-eYFP fusion were constructed. […] FACS binding assay and immunocytochemistry (ICC) were carried out to determine if ASC06-IgG1 is able to bind to the cell surface-expressed ASIC homologs and isotypes.

hASIC2a/2b = molecular target: T2, hASIC2a/2b (Homo sapiens, UniProt Q16515); assay: Subtype selectivity, FACS binding, transfected CHO-K1 cells
T2 construct: expressed in transfected cells; host or cells: CHO-K1, transient
T2 sequence (Q16515 1-512): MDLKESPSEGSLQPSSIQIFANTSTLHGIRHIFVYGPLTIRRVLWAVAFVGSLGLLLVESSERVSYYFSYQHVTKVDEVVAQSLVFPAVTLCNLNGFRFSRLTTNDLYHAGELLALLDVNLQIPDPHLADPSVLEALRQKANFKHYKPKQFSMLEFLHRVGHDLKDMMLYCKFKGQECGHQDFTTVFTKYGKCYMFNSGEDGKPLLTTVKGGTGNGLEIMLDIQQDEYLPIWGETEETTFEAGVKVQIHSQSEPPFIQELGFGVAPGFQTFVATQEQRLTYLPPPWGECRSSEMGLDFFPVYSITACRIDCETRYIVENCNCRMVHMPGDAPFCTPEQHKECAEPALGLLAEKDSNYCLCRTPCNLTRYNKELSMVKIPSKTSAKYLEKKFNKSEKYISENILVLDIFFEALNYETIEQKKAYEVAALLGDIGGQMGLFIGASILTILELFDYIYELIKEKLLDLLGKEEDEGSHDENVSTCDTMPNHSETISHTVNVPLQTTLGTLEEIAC
T2 sequence (Q16515 1-563 isoform Q16515-2): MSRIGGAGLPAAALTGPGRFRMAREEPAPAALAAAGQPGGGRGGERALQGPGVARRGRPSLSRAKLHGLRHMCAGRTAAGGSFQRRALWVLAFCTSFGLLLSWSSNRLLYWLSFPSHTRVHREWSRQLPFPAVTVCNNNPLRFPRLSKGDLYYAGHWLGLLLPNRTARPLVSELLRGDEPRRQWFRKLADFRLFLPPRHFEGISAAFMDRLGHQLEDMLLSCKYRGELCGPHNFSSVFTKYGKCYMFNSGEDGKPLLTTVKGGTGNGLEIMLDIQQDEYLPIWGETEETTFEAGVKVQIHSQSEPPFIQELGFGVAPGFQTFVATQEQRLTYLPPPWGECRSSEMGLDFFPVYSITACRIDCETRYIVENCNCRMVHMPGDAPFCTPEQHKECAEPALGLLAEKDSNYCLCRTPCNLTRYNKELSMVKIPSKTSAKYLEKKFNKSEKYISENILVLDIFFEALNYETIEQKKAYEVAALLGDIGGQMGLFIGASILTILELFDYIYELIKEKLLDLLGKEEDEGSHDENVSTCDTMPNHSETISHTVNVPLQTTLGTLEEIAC
Method: (§1) To test the species and subtype selectivity of ASC06-IgG1, vectors encoding human ASIC1b-eYFP fusion, rat ASIC1a-eYFP fusion, mouse ASIC1a-eYFP fusion, hASIC2a-eYFP fusion, hASIC2b-eYFP fusion, and hASIC3a-eYFP fusion were constructed. The CHO-K1 cells were transiently transfected with these plasmids. FACS binding assay and immunocytochemistry (ICC) were carried out to determine if ASC06-IgG1 is able to bind to the cell surface-expressed ASIC homologs and isotypes.

hASIC2a = molecular target: T3, hASIC2a (Homo sapiens, UniProt Q16515); assay: as above
T3 construct: expressed in transfected cells; host or cells: CHO-K1, transient
T3 sequence (Q16515 1-512): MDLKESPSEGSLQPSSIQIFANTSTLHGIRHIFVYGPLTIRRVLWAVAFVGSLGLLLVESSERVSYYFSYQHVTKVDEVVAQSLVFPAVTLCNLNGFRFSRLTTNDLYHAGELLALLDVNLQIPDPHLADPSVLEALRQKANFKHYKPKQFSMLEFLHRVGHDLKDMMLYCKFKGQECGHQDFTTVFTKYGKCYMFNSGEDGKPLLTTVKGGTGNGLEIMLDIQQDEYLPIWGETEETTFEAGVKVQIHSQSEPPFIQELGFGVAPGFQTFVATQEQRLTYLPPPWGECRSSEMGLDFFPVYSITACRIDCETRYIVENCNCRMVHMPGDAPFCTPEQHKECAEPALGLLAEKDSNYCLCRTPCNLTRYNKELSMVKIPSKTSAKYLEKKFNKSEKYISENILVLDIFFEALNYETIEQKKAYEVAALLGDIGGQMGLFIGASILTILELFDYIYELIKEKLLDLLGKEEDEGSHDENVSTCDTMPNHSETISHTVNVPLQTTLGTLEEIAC
Method: as §1

hASIC3a = molecular target: T4, hASIC3a (Homo sapiens, UniProt Q9UHC3); assay: as above
T4 construct: expressed in transfected cells; host or cells: CHO-K1, transient
T4 sequence (Q9UHC3 1-531): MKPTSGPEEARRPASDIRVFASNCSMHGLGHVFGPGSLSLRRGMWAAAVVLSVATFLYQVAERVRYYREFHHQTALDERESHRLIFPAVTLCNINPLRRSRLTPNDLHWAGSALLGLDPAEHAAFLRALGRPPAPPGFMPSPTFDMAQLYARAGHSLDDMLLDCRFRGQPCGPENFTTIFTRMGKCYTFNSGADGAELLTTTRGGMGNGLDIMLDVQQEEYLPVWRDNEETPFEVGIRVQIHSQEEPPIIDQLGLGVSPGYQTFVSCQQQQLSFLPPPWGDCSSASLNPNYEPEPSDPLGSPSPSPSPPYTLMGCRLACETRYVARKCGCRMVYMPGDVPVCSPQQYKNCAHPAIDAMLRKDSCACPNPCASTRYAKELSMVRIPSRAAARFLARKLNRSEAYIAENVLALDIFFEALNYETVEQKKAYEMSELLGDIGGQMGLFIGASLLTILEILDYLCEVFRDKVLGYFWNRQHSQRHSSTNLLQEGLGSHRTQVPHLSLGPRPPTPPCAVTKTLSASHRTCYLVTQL
Method: as §1

B1: ASC06-IgG1: ASC06 antibody converted into a full length IgG1 form (antibody, V domains shown)
VH: QVQLQQSGGGLVQPGGSLRLSCAASGFTFSSYAMSWVRQAPGKGLEWVSAISGSGGSTYYADSVKGRFTISRDNSKNTLYLQMNSLRAEDTAVYYCAKDSFYGYSKGDWGQGTLVTVSS
VL: QSALTQPASVSGSPGQSITISCTGTSSDVGAYNYVSWYQQQPGKAPKLMIYGVSNRPSGVSNRFSGSKSGNAASLTISGLQAEDEADYYCSSYTSSSTYVFGTGTKLTVLG
FACS recognition of human ASIC1a (hASIC1a-eYFP; FACS): recognized | ICC membrane co-localization with hASIC1a-eYFP (hASIC1a-eYFP; ICC staining): membrane co-localization | FACS recognition of hASIC2a/2b (hASIC2a/2b): not | FACS recognition of hASIC2a (hASIC2a): not | FACS recognition of hASIC3a (hASIC3a): not
